Consider eight molecules from patent publication US20110177071A1 (PERSEID THERAPEUTICS, published 2011).

Assay [1] concerns the target T1, human CD86-murine Ig fusion protein (human).
T1 construct: Bought (Ancell #509-820); also called hCD86-mIg
T1 chain: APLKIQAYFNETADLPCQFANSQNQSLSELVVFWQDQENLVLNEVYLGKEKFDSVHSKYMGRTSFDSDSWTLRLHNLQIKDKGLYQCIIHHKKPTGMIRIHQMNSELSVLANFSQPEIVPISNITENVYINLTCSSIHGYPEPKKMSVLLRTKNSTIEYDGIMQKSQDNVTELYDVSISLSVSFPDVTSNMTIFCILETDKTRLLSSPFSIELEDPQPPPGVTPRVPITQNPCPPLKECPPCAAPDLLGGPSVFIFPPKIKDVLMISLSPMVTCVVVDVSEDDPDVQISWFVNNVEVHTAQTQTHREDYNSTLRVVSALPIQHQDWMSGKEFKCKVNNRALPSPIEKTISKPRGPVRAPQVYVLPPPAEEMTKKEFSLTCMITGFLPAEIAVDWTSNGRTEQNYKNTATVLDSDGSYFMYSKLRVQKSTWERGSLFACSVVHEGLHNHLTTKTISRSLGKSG
Briefly: SPR Biacore, hCD86-mIg captured. On the technique in general: Surface plasmon resonance follows binding to a sensor surface in real time, without labels.

Assay [2] addresses T2, monomeric hCD86 ECD (papain-digested hCD86-mIg) (human, UniProt P42081 24-243).
T2 construct: also called monomeric hCD86-mIg ligand; monomeric CD86 ECD
T2 chain: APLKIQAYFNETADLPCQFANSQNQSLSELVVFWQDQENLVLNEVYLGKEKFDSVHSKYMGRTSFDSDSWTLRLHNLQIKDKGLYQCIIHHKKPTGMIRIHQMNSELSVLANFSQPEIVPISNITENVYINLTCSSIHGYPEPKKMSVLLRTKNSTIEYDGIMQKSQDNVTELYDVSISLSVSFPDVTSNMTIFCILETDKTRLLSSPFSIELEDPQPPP
Briefly: SPR Biacore, fusion protein captured, monomeric hCD86 ECD in flow. The method, then:
Regeneration between cycles was performed by 3 min incubation with 10 mM glycine buffer (pH 1.7) at 30 μl/min.
For kinetic analysis, data from monomeric binding assays were selected as described above except that association data selection began and ended 5 s from the injection start and stop times, and dissociation data selection started 5 s after the injection stop time, and typically included 1-60 s of the dissociation period. Such data were also analyzed for steady state equilibrium affinities using the BIAevaluation software. Steady state binding levels for each concentration (Responseeq (“Req”) values) were averaged over 5-20 s range near the end of the sample injection using the BIAevaluation “General fit: average” function.

Assay [3] has as its target T3, human CD80-murine Ig fusion protein (human).
T3 construct: Bought (Ancell #510-820); also called hCD80-mIg; human CD80-murine IgG
T3 chain: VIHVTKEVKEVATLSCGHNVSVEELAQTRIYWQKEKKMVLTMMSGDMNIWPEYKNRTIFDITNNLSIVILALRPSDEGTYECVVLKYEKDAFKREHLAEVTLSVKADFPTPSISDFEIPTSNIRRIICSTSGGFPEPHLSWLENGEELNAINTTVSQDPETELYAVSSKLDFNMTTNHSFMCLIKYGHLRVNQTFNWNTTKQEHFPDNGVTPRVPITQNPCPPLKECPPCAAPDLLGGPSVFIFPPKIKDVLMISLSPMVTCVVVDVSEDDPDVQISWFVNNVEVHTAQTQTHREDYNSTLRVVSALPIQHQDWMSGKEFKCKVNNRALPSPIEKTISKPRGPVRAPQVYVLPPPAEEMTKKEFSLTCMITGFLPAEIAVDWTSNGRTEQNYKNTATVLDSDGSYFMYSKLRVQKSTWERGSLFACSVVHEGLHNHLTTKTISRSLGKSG
Briefly: SPR Biacore, hCD80-mIg captured.

For assay [4], the target named is T4, full-length human CD86 on HEK293 cells (human, UniProt P42081 24-329).
T4 sequence: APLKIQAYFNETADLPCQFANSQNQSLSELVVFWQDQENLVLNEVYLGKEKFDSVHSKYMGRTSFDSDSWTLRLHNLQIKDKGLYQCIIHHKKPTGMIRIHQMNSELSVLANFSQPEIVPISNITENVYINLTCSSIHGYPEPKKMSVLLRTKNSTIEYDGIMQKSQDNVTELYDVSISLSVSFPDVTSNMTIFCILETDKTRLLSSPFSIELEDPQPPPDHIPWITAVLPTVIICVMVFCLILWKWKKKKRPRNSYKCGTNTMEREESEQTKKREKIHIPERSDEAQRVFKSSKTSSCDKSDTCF
Briefly: cell-based or functional assay.

Where only a bound is given, the exact number is not on record here.

B1: D3-4-IgG2 (Fc fusion)
chain: MHVAQPAVVLASSRGIASFVCEYESPGKANEIRVTVLRQADSQVTEVCAMTYMKGDELTFLDDPSCTGTFSGNQVNLTIQGLRAADTGLYICKVELMYPPPYYLGFGNGTQIYVIDPEPCPDSDERKCCVECPPCPAPPVAGPSVFLFPPKPKDTLMISRTPEVTCVVVDVSHEDPEVQFNWYVDGVEVHNAKTKPREEQFNSTFRVVSVLTVVHQDWLNGKEYKCKVSNKGLPAPIEKTISKTKGQPREPQVYTLPPSREEMTKNQVSLTCLVKGFYPSDIAVEWESNGQPENNYKTTPPMLDSDGSFFLYSKLTVDKSRWQQGNVFSCSVMHEALHNHYTQKSLSLSPG
notes: also called D3-04-IgG2
Turning to B1, the “Binding Avidity (Relative to Orencia)” value in assay [1] was more than 40 fold. Besides, the Kd was less than 0.131 nM in assay [1], less than 336 nM in assay [2] and 0.439 to 1.75 nM in assay [3]. For the same molecule, the “Binding Affinity (Relative to LEA29Y-Ig)” value in assay [2] was more than 5 fold. In addition, in assay [4], the “Mean IC50 (nM), CD4+ T cell proliferation” value (shortened to “Mean IC50 (nM)”) was 0.03 nM.

B2: D3-29-IgG2 (Fc fusion)
chain: MHVAQPAVVLASSRGIASFVCEYASPGKANEIRVTVLRQADSQVTEVCAMTYMKGDELTFLDDPSCTGTFSGNQVNLTIQGLRAMDTGLYICKVELMYPPPYYLGIGNGTQIYVIDPEPCPDSDERKCCVECPPCPAPPVAGPSVFLFPPKPKDTLMISRTPEVTCVVVDVSHEDPEVQFNWYVDGVEVHNAKTKPREEQFNSTFRVVSVLTVVHQDWLNGKEYKCKVSNKGLPAPIEKTISKTKGQPREPQVYTLPPSREEMTKNQVSLTCLVKGFYPSDIAVEWESNGQPENNYKTTPPMLDSDGSFFLYSKLTVDKSRWQQGNVFSCSVMHEALHNHYTQKSLSLSPG
For B2, in assay [1], the “Binding Avidity (Relative to Orencia)” value is more than 40 fold. The dissociation constant (Kd) in assay [1] is less than 0.131 nM; in assay [2] it was less than 336 nM; in assay [3], 0.439 to 1.75 nM. The “Binding Affinity (Relative to LEA29Y-Ig)” value in assay [2] was more than 5 fold. In addition, the “Mean IC50 (nM)” value in assay [4] worked out at 0.04 nM.

B3: D3-20-IgG2 (Fc fusion)
chain: MHVAQPAVVLASSRGIASFVCEYESPGKANEIRVTVLRQADSQVTEVCAMTYMKGNELTFLDDPSCTGTFSGNQVNLTIQGLRAMDTGLYICKVELMYPPPYYLGIGNGTQIYVIDPEPCPDSDERKCCVECPPCPAPPVAGPSVFLFPPKPKDTLMISRTPEVTCVVVDVSHEDPEVQFNWYVDGVEVHNAKTKPREEQFNSTFRVVSVLTVVHQDWLNGKEYKCKVSNKGLPAPIEKTISKTKGQPREPQVYTLPPSREEMTKNQVSLTCLVKGFYPSDIAVEWESNGQPENNYKTTPPMLDSDGSFFLYSKLTVDKSRWQQGNVFSCSVMHEALHNHYTQKSLSLSPG
With B3, the results for the Kd in assay [1], in assay [2] and in assay [3] were 0.131 to 0.262 nM, 336 to 840 nM and 0.439 to 1.75 nM, respectively. For the same molecule, in assay [4], the “Mean IC50 (nM)” value turned out to be 0.04 nM.

B4: D3-27-IgG2 (Fc fusion)
chain: MHVAQPAVVLASSRGIASFVCEYESPGKANEVRVTVLRQADSQVTEVCAMTYMKGNELTFLDDPSCTGTFSGNQVNLTIQGLRAMDTGLYICKVELMYPPPYYLGIGNGTQIYVIDPEPCPDSDERKCCVECPPCPAPPVAGPSVFLFPPKPKDTLMISRTPEVTCVVVDVSHEDPEVQFNWYVDGVEVHNAKTKPREEQFNSTFRVVSVLTVVHQDWLNGKEYKCKVSNKGLPAPIEKTISKTKGQPREPQVYTLPPSREEMTKNQVSLTCLVKGFYPSDIAVEWESNGQPENNYKTTPPMLDSDGSFFLYSKLTVDKSRWQQGNVFSCSVMHEALHNHYTQKSLSLSPG
B4: the values for the Kd in assay [1], in assay [2] and in assay [3] were 0.131 to 0.262 nM, 336 to 840 nM and 0.439 to 1.75 nM, respectively. The “Mean IC50 (nM)” value in assay [4] worked out at 0.04 nM.

B5: D3-31-IgG2 (Fc fusion)
chain: MHVAQPAVVLASSRGIASFVCEYESPGKANEIRVTVLRQADSQVTEVCAMTYMKEDELTFLDDPSCTGTFSGNQVNLTIQGLRAADTGLYICKVELMYPPPYYLGIGNGTQIYVIDPEPCPDSDERKCCVECPPCPAPPVAGPSVFLFPPKPKDTLMISRTPEVTCVVVDVSHEDPEVQFNWYVDGVEVHNAKTKPREEQFNSTFRVVSVLTVVHQDWLNGKEYKCKVSNKGLPAPIEKTISKTKGQPREPQVYTLPPSREEMTKNQVSLTCLVKGFYPSDIAVEWESNGQPENNYKTTPPMLDSDGSFFLYSKLTVDKSRWQQGNVFSCSVMHEALHNHYTQKSLSLSPG
Regarding B5, in assay [1], the “Binding Avidity (Relative to Orencia)” value was more than 40 fold and the Kd was less than 0.131 nM. Also, in assay [2], the “Binding Affinity (Relative to LEA29Y-Ig)” value is more than 5 fold and the Kd was less than 336 nM. Further, in assay [3], the “Binding Avidity (Relative to Orencia)” value is more than 2 fold and the Kd is less than 0.439 nM. In assay [4], the “Mean IC50 (nM)” value amounted to 0.03 nM.

B6: D3-12-IgG2 (Fc fusion)
chain: MHVAQPAVVLASSRGIASFVCEYESPGKANEIRVTVLRQAGSQVTEVCAMTYMKGDELTFLDDPSCTGTFSGNQVNLTIQGLRAADTGLYICKVELMYPPPYYLGIGNGTQIYVIDPEPCPDSDERKCCVECPPCPAPPVAGPSVFLFPPKPKDTLMISRTPEVTCVVVDVSHEDPEVQFNWYVDGVEVHNAKTKPREEQFNSTFRVVSVLTVVHQDWLNGKEYKCKVSNKGLPAPIEKTISKTKGQPREPQVYTLPPSREEMTKNQVSLTCLVKGFYPSDIAVEWESNGQPENNYKTTPPMLDSDGSFFLYSKLTVDKSRWQQGNVFSCSVMHEALHNHYTQKSLSLSPG
Take B6: in assay [1], the “Binding Avidity (Relative to Orencia)” value is more than 40 fold and the Kd is less than 0.131 nM. In assay [2], the “Binding Affinity (Relative to LEA29Y-Ig)” value is more than 5 fold and the Kd is less than 336 nM. For the same molecule, in assay [3], the “Binding Avidity (Relative to Orencia)” value is more than 2 fold and the Kd was less than 0.439 nM. Besides, the “Mean IC50 (nM)” value in assay [4] stood at 0.04 nM.

B7: D3-53-IgG2 (Fc fusion)
chain: MHVAQPAVVLASSRGIASFVCEYESPGKANEIRVTVLRQAGSQVTEVCAMTYMKGDELTFLDDPSCTGTFSGNQVNLTIQGLRAADTGLYICKVELMYPPPYYEGIGNGTQIYVIDPEPCPDSDERKCCVECPPCPAPPVAGPSVFLFPPKPKDTLMISRTPEVTCVVVDVSHEDPEVQFNWYVDGVEVHNAKTKPREEQFNSTFRVVSVLTVVHQDWLNGKEYKCKVSNKGLPAPIEKTISKTKGQPREPQVYTLPPSREEMTKNQVSLTCLVKGFYPSDIAVEWESNGQPENNYKTTPPMLDSDGSFFLYSKLTVDKSRWQQGNVFSCSVMHEALHNHYTQKSLSLSPG
In the case of B7, in assay [1], the “Binding Avidity (Relative to Orencia)” value is more than 40 fold and the dissociation constant (Kd) was less than 0.131 nM. Also, in assay [2], the “Binding Affinity (Relative to LEA29Y-Ig)” value was more than 5 fold and the Kd is less than 336 nM. Further, in assay [3], the “Binding Avidity (Relative to Orencia)” value is more than 2 fold and the Kd was less than 0.439 nM. Moreover, the “Mean IC50 (nM)” value in assay [4] is 0.02 nM.

B8: D3-11-IgG2 (Fc fusion)
chain: MHVAQPAVVLASSRGIASFVCEYESPGKANEIRVTVLRQAGSQVTEVCAMTYMKGDELTFLDDPSCTGTFSGNQVNLTIQGLRAMDTGLYICKVELMYPPPYYLGFGNGTQIYVIDPEPCPDSDERKCCVECPPCPAPPVAGPSVFLFPPKPKDTLMISRTPEVTCVVVDVSHEDPEVQFNWYVDGVEVHNAKTKPREEQFNSTFRVVSVLTVVHQDWLNGKEYKCKVSNKGLPAPIEKTISKTKGQPREPQVYTLPPSREEMTKNQVSLTCLVKGFYPSDIAVEWESNGQPENNYKTTPPMLDSDGSFFLYSKLTVDKSRWQQGNVFSCSVMHEALHNHYTQKSLSLSPG
With B8, in assay [1], the “Binding Avidity (Relative to Orencia)” value was more than 40 fold and the dissociation constant (Kd) was less than 0.131 nM. Moreover, in assay [2], the “Binding Affinity (Relative to LEA29Y-Ig)” value is more than 5 fold and the Kd is less than 336 nM. In assay [3], this molecule had a Kd of 0.439 to 1.75 nM. Besides, in assay [4], the “Mean IC50 (nM)” value came to 0.03 nM.

What is called Kd is the concentration at which binding is half-saturated. A higher Kd goes with weaker binding.
